Consider 18 sequences from the DeepSol protein solubility set.

This data set is described as follows: soluble on expression in E. coli; label from the status in PepcDB or PDB records.
As for “MGQEVSLLAVKTEPLNSSETTATTGDGALDTFTGSVITSSGYSPRSAHQYSPQLYPSKPYPHILSTPAAQTMSAYAGQTQYSGMQQPAVYTAYSQTGQPYSLPTYDLGVMLPAIKTESGLSQTQSPLQSGCLSYSPGFSTPQPGQTPYSYQMPGSSFAPSSTIYANNSVSNSTNFSGSQQDYPSYTAFGQNQYAQYYSASTYGAYMTSNNTADGTPSSTSTYQLQESLPGLTNQPGEFDTMQSPSTPIKDLDERTCRSSGSKSRGRGRKNNPSPPPDSDLERVFVWDLDETIIVFHSLLTGSYAQKYGKDPPMAVTLGLRMEEMIFNLADTHLFFNDLEECDQVHIDDVSSDDNGQDLSTYSFATDGFHAAASSANLCLPTGVRGGVDWMRKLAFRYRRVKELYNTYKNNVAGLLGPAKRDAWLQLRAEIEGLTDSWLTNALKSLSIISTRSNCINVLVTTTQLIPALAKVLLYSLGGAFPIENIYSATKIGKESCFERIMQRFGRKVVYVVIGDGVEEEQAAKKHNMPFWRISSHSDLLALHQALELEYL”, the “soluble on expression in E. coli” value is listed as “not soluble”.
Take “MDRQGFVPAAYVKKLDSGTGKELVLALYDYQEKSPREVTMKKGDILTLLNSTNKDWWKVEVN”: the “soluble on expression in E. coli” value is reported as “soluble”.
Regarding “MYDTIVIGAGQAGISIGYYLKQSDQKFIILDKSHEVGESWKDRYDSLVLFTSRMYSSLPGMHLEGEKHGFPSKNEIVAYLKKYVKKFEIPIQLRTEVISVLKIKNYFLIKTNREEYQTKNLVIATGPFHTPNIPSISKDLSDNINQLHSSQYKNSKQLAYGNVLVVGGGNSGAQIAVELSKERVTYLACSNKLVYFPLMIGKRSIFWWFDKLGVLHASHTSIVGKFIQKKGDPVFGHELKHAIKQKEIILKKRVIAAKQNEIIFKDSSTLEVNNIIWATGFRNPLCWINIKGVLDQEGRIIHHRGVSPVEGLYFIGLPWQHKRGSALLQGVGNDAEYIVKQMNGELEHHHHHH”, the “soluble on expression in E. coli” value was “soluble”.
Consider “MIRIGHGFDVHRFGGEGPIIIGGVKIPYEQGLIAHSDGDVALHALSDALLGAIAAGDIGRHFPDTDDKWKGADSRELLKDVYRRVKAQGYVLGNADVTIIAQAPKMAPYIQAMCAAIAEDLETDLGNINVKATTTEKLGFTGRKEGIACEAVVLLRKA”, for which the “soluble on expression in E. coli” value is “not soluble”.
On to “MGSDKIHHHHHHMNYCSIVSSNVVKGKAKELGFHKVGIAAVNESTNAEAERLQAWIKLGYHADMEWMNNPKRSDISLIMPEARSLVCVALNYYTPHQRPDSAEYAKISRYGWGRDYHKVMNRKLKALTTWLQSLDPSIQARYYADTGPVQDKVWAQRAGIGWIAKNGNVITRAYGSWVFLGEVVTNLELEKDSPHTEHCGSCTRCLDACPTGAITQPFVVDANRCIAYHTIENRAAELPEAIASQMQGWVAGCDICQDVCPWNQRFAQTTDVVDFQPYPDNIAPKLIELAQISDEEWDKQFPASALRRIKPEMLRRNARANLDASKRNNDPESNHF”, for which the “soluble on expression in E. coli” value is “not soluble”.
“MGSDKIHHHHHHMTEIYEKYAHAAERMLHFVETRTTDQASSTMRVPVADYLDQGRFDLEIDRIFKRLPLMLALTIELPEVNDYKAMDVMGLPVLITRGRDGKARAFLNVCKHRAMHLAKEGKGNCKAFACQYHGWTYANDGKLMGIAEASTFGDVDRSTLNMTELPCDEAAGLIFVILTPGLPINAVEWMGGMYEDFAALKLETWYYHKSKAMKGANWKVAYDGYLEGYHFQAAHTNTVATRSPSNRASYEGFGPHIRLGFPQNTITRLHELPRDEWGRQENKGYDFIRMLFPNMSFFLAPEMGQLAQLFPGPQANQNTTVMNYIFPVKPETEEGLAALDQMCDFFFDVVEEEDYFLGLKVQNGLESGAMTHQTFGRNEPGNQFFHKWVAYYLDESGQTPMPVMKE”: the “soluble on expression in E. coli” value was “not soluble”.
“MKKHDGIIVLLSGGMDSATLLWLAKREFKKVYAISFDYGQRHKVELKYAKELAKLAEVEDHFIVQVPFYTSLKGSALIDESVEVPKGEYPENEPPVTTVPMRNLIFLSIASAFADNLEVNYIGIGVHALDTPYPDCRPEFITAAEAAINAGSTFVAKKKERMHVYAPFLGMSKRDIALLGKELGVPFEKTYSCYMGTEPPCGECPTCIQREEALRGIL”: the “soluble on expression in E. coli” value was “soluble”.
As to “MQQNKCPDCEVELEWTGQYHCGQCESDFKKVGFCPDCGAELEKLQACGAANYFCNTCNELKSKSRVRFEFQKISLEHHHHHH”, the “soluble on expression in E. coli” value is “soluble”.
Turning to “MGPTPHIAVIGGGSTGAGIARDLAMRGLDVTLVEQGNLTHGTTGRMHGLLHSGGRYAVSDQASATECIEENRVLRDIASHCVEMTGGLFVKRPEDSEEYFQKKLNGCEECGIPAEVVSGEEARAMEPHLAKDIDKAISVPDGAIDPFRLVVANAASAQEHGARIETHTKVTDLLVESGEVVGIEVEHDSGPGKRVHGTEGGTEQIRADYVVNATGAWAGRIGDMAGLDIEVRPSKGVMTIMNIRQVDTVINRCRPKGDADIVVPHETTAILGTTDEEVEDPEDYPEEQWEVDMMIDTLSELIPMLDEARTIRSFWGVRPLYEPPDVGSDDPTDITRDFFLLDHDERDDLPGMTSIVGGKFTTYRMMGEQIADHVCGKFGIDADCRTADEPLPGSEDFSVLRDYMDEFGLRSPIGRRSVERLGSRADDVLKTDGPNPTVCACEGVTRAEIQDAIGGSGSDLNAVRIRTRASMGNCQGGFCSHRMASELHSEYDEPVVREAWDELLQERWKGQRHALWGEQLSQAALNYALHATTQNRDQDPADGEPVDFSAFDSGRGQTGGSVDSADVAADGGTNGYLEHHHHHH”, the “soluble on expression in E. coli” value is on record as “not soluble”.
For “GLQTYEYGLKPQDGFEVITHFEFTSQHLDILNRLFTPLIGVESIGLYHFMSQFIDESQQLGLTHYIFMNELKINLLDFREQMDNLEAIGLIKTFVRHEEKYSHFVYELIQPPTAYQFFNDPMLSVFLFSEVDKKRYQALKSYFEKDEKDLSKYQQTTRKFTEVFNVPKKVNVSDQINLKQIKHYDGIDLSNETFDFEMLRQMLNHHFISNEIIDKEAKNLIIQLATLYGITEDGMKNVILSSITSAQQLSFEEMRKKARTYYLIEHDNQLPKLEHQTNKINDEKKDRQAEDTTNDWLQLLDETSPIDMLASWSDSEPTQSQKSMIEELINREKMNFGVINILLQFVMLKEDMKLPKSYIFEIASNWKKIGISNAKQAYEYALQVNQPKNYETHSNDKRQNNRGRQNQFLSKEKTPKWLQNRDDQEENKEINDDTLEEDRQAFLEKLNQKWKEEDN”, the “soluble on expression in E. coli” value is “not soluble”.
On to “QNEEEADRIGIQVLQRSGFDPQAMPMFMGKLLDESRYSTRPPEMLLTHPLPESRLADARNRANQMRPVVVQSSADFYLAKARTLGMYTNGDNKLGTDLLNAWDKGNIRQQHAAQYGRALLAMESNNFDQARKTLQPLLNADPQNAWYLDLATDIDLGQKKTSDAINRLKNARELRTNPVLQLNLANALLQGGQPGEAATILNRYTFTYKEDGNGWDLLAQAEGALGNRDQELAARAESMALVGQLEQA”, for which the “soluble on expression in E. coli” value was “not soluble”.
Consider “MLDMELESFLSMEKQGDISDAFLSAVKAEMQQMVLYAAGLAVRNIEETNRLRQKAKELYFYYLERYSPLAEMYKGSEMSLHNAGTATLRGHKNLAGGKRIDIGLWDGSKEFFHEYCYLPDDVQIRLFISKIQLLHFVVGAITTPQYVEKVALLGKVVGSSRYLELLRSFIDLNDPSGKNYSRGLFFYDHKFDKLEEVGKEVGENLPEVIKRFFPDKWVLVDVWATWCSPCKKEFGYNKQLHAFLEEKGIAMLYCSVDEPENSDNWRNNLSAFGLTGYHYYITSKAEKELLKIPDFRMLIPRYLLFDNKGKLVHANLPRPSSEKALYEEIEKLMQGN”, for which the “soluble on expression in E. coli” value is reported as “not soluble”.
For the sequence “MKGRLLDAVPLSSLTGVGAALSNKLAKINLHTVQDLLLHLPLRYEDRTHLYPIGELLPGVYATVEGEVLNCNISFGGRRMMTCQISDGSGILTMRFFNFSAAMKNSLAAGRRVLAYGEAKRGKYGAEMIHPEYRVQGDLSTPELQETLTPVYPTTEGVKQATLRKLTDQALDLLDTCAIEELLPPELSQGMMTLPEALRTLHRPPPTLQLSDLETGQHPAQRRLILEELLAHNLSMLALRAGAQRFHAQPLSANDTLKNKLLAALPFKPTGAQARVVAEIERDMALDVPMMRLVQGDVGSGKTLVAALAALRAIAHGKQVALMAPTELLAEQHANNFRNWFAPLGIEVGWLAGKQKGKARLAQQEAIASGQVQMIVGTHAIFQEQVQFNGLALVIIDEQHRFGVHQRLALWEKGQQQGFHPHQLIMTATPIPRTLAMTAYADLDTSVIDELPPGRTPVTTVAIPDTRRTDIIDRVHHACITEGRQAYWVCTLIEESELLEAQAAEATWEELKLALPELNVGLVHGRMKPAEKQAVMASFKQGELHLLVATTVIEVGVDVPNASLMIIENPERLGLAQLHQLRGRVGRGAVASHCVLLYKTPLSKTAQIRLQVLRDSNDGFVIAQKDLEIRGPGELLGTRQTGNAEFKVADLLRDQAMIPEVQRLARHIHERYPQQAKALIERWMPETERYSNA”, the “soluble on expression in E. coli” value was “soluble”.
As for “MGSDKIHHHHHHMGSQAIVTGASGFIGSSVARMLAHKGWTVHGIGSSHLAMEAQEQIGIKHWVQQDLTLASLQGLADKTGDPDIIIHCAGGSSVQASISNPYEDFARTANATLNVLEFMRRYSPASALVYPSSAAVYGQTSSLPIAESSTPKPFSPYGHHKRIAEILCESYSLQWQLSVSIVRLFSVYGAGLKKQLLWDACQKAEQGAYSFFGSGAEIRDWLHVEDASNLLILAAEYASPECVIINGGSGVGTSINEILKLVGSHFALVSAPTFSGKAREGDPDSYVADITKAQALGFIPSFSLSDGIRQYVEWFKKECML”, the “soluble on expression in E. coli” value is reported as “not soluble”.
The entry for “MGSGEPNPAGKKKKYLKAALYVGDLDPDVTEDMLYKKFRPAGPLRFTRICRDPVTRSPLGYGYVNFRFPADAEWALNTMNFDLINGKPFRLMWSQPDDRLRKSGVGNIFIKNLDKSIDNRALFYLFSAFGNILSCKVVCDDNGSKGYAYVHFDSLAAANRAIWHMNGVRLNNRQVYVGRFKFPEERAAEVRTRDRATFTNVFVKNIGDDIDDEKLKELFCEYGPTESVKVIRDASGKSKGFGFVRYETHEAAQKAVLDLHGKSIDGKVLYVGRAQKKIERLAELRRRFERLRLKEKSRPPGVPIYIKNLDETINDEKLKEEFSSFGSISRAKVMMEVGQGKGFGVVCFSSFEEATKAVDEMNGRIVGSKPLHVTLGQARRRC” is “soluble”; for “GPPQMSATNEDLKTNFHSLHNQMRQMPMSHFREALDAPDYSGMRQSGFFAMSQGFQLESHGGDVFMHAHRENPQCKGDFAGDKFHISVQREQVPQAFQALSGLLFSVDSPIDKWKVTDMERVDQQSRVAVGAQFTLYVKPDQENSQYSASSLHNTRQFIECLESRLSESGLMPGQYPESDVHPENWKYVSYRNELRSGRDGGEMQSQALREEPFYRLMAE” it is “soluble”.
As for “MGSDKIHHHHHHMKGKYRVGLISFSDGREYVHRELEGIVKKFEDEIAKTLEETGEVEVIRAKEIVWKPSIAKREARRLAEEGAEVTIFNYAVWAFPHFTVLASKFAPGPFLLFSNINPQYPGMVAMLSAAGALEQDGTKHYRMWGNIKDEKVLRKVMAFIRAGSTYKKLRGQRYGVFGGRSMGMYTAVPNVDLWNKIFGVDVEHIDQFEIVRRSQLIPDERARKGRLWIEEKAKAVHYDGKYLTPEKLELQIKSYHAVREIVEEMELDFVGIKGQLELTEHFVTMDVTETFLNDPYDWEGEHEPIVCATEADSDGALTMQIFKLIAKTPVLFADVRHYVEEYDVLDLCNSGNHATYFAARSFDPDENMKKVEFYPQTFYFPAGGAAVKHIAAPGKVTLGRLTREDGRYRFTVVPGEFVDFGEEKNYEIADSIQNNWPHAFLKMETPIDEFLAKYSSNHIHGVYGDYVEEIKTFCEIASIDFVLMK”, the “soluble on expression in E. coli” value is listed as “not soluble”.
With “MADYADAVVTQESALTTSPGETVTLTCRSSTGAVTTSNYASWVQEKPDHLFTGLIGGTNNRAPGVPARFSGSLIGDKAALTITGAQTEDEAIYFCALWYSNHWVFGGGTKLTVLGGGGGSGGGGSGGGGSGGGGS” the entry was “soluble”.
